The values below come from paper PMC6068138, “Identification of a 57S translation complex containing closed-loop factors and the 60S ribosome subunit” (Scientific Reports, 2018).

Common to all, as to details: partners not purified
In test [1] the target is T1, eIF4E-Flag (mRNA cap binding protein) (Saccharomyces cerevisiae, UniProt P07260 1-213).
T1 construct: bait of the one-step Flag pull down; also called eIF4-Flag; source: S. cerevisiae, expressed from plasmid YC801 (eIF4E-Flag URA3), in cell extract
T1 sequence (looked up): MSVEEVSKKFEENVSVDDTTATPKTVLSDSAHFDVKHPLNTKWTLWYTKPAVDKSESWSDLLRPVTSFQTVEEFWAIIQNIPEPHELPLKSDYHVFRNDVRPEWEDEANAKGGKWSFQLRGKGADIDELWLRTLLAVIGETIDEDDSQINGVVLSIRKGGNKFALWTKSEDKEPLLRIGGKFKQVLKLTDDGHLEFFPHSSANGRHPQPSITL
The test can be described thus: co-IP + AUC; stoichiometric analysis: eIF4E-Flag purified material split and run at the same time by AU-FDS (GFP protein) and AU-A230 (total material); standards STM1-GFP and RPS4B-GFP; values relative to 100 mRNA bound by ribosomes; cells on glucose.

The target in test [2] is T2, Flag-PAB1 (poly(A)-binding protein) (Saccharomyces cerevisiae, UniProt P04147 1-577).
T2 construct: bait of the one-step Flag pull down; also called PAB1-Flag; source: S. cerevisiae, expressed from plasmid YC776 (Flag-PAB1 URA3), in cell extract
T2 sequence (looked up): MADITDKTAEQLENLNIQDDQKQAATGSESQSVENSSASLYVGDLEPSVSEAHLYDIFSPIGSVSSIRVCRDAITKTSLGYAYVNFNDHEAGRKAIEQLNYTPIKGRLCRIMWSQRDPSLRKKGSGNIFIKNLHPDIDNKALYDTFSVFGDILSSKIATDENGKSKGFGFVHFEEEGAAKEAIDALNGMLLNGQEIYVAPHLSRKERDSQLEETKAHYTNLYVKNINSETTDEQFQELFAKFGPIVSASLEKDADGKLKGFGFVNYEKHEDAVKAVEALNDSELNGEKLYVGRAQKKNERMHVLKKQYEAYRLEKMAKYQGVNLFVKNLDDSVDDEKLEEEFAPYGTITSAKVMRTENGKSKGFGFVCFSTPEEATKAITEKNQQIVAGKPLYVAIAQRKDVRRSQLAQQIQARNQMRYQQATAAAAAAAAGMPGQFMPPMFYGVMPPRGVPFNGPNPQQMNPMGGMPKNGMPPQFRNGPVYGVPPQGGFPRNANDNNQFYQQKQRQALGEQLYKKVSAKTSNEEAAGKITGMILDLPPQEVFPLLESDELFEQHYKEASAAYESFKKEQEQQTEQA
The test is described as follows: co-IP + AUC; stoichiometric analysis: Flag-PAB1 purified material split and run at the same time by AU-FDS (GFP protein) and AU-A230 (total material); standards STM1-GFP and RPS4B-GFP; values relative to 100 mRNA bound by ribosomes; cells on glucose, 30 °C to 46 °C 1 min, or glucose depleted 10 min and added back 1 min.

Test [3] deals with T2, Flag-PAB1 (poly(A)-binding protein). The description is as above. This is another data set of the same source.
For test [4] the target is unchanged. The test can be described thus: co-IP + AUC; one-step Flag pull down of Flag-PAB1 from yeast cell extracts (cycloheximide added before lysis); Flag eluate analysed by AU-FDS for the GFP tagged protein, 20 °C, 15,000 rpm; cells on glucose, glucose depleted 10 min, glucose added back 1 min, or 30 °C to 46 °C 1 min.
Test [5] addresses T1, eIF4E-Flag (mRNA cap binding protein). The test can be described thus: co-IP + AUC; one-step Flag pull down of eIF4E-Flag from yeast cell extracts (cycloheximide added before lysis); Flag eluate analysed by AU-FDS for the GFP tagged protein, 20 °C, 15,000 rpm; cells on glucose or glucose depleted 10 min.

B1: PAB1, GFP tagged (natural protein, Saccharomyces cerevisiae, UniProt P04147 1-577, looked up)
chain: T2 sequence (looked up)
notes: source: S. cerevisiae strain carrying the GFP fusion, in cell extract
In the case of B1, in test [1], the “abundance in the eIF4E-Flag 39S complex (Glc+)” value was 42 ± 9.1 relative to 100 mRNA and the “abundance in the eIF4E-Flag 57S complex (Glc+)” value was 26 ± 3.7 relative to 100 mRNA.

B2: eIF4G1, GFP tagged (natural protein, Saccharomyces cerevisiae, UniProt P39935 1-952, looked up)
chain: MTDETAHPTQSASKQESAALKQTGDDQQESQQQRGYTNYNNGSNYTQKKPYNSNRPHQQRGGKFGPNRYNNRGNYNGGGSFRGGHMGANSSNVPWTGYYNNYPVYYQPQQMAAAGSAPANPIPVEEKSPVPTKIEITTKSGEHLDLKEQHKAKLQSQERSTVSPQPESKLKETSDSTSTSTPTPTPSTNDSKASSEENISEAEKTRRNFIEQVKLRKAALEKKRKEQLEGSSGNNNIPMKTTPENVEEKGSDKPEVTEKTKPAEEKSAEPEVKQETPAEEGEQGEKGQIKEESTPKVLTFAERLKLKKQQKEREEKTEGKENKEVPVQEETKSAIESAPVPPSEQVKEETEVAETEQSNIDESATTPAIPTKSDEAEAEVEAEAGDAGTKIGLEAEIETTTDETDDGTNTVSHILNVLKDATPIEDVFSFNYPEGIEGPDIKYKKEHVKYTYGPTFLLQFKDKLNVKADAEWVQSTASKIVIPPGMGRGNRSRDSGRFGNNSSRGHDFRNTSVRNMDDRANSRTSSKRRSKRMNDDRRSNRSYTSRRDRERGSYRNEEKREDDKPKEEVAPLVPSANRWVPKFKSKKTEKKLAPDGKTELLDKDEVERKMKSLLNKLTLEMFDAISSEILAIANISVWETNGETLKAVIEQIFLKACDEPHWSSMYAQLCGKVVKELNPDITDETNEGKTGPKLVLHYLVARCHAEFDKGWTDKLPTNEDGTPLEPEMMSEEYYAAASAKRRGLGLVRFIGFLYRLNLLTGKMMFECFRRLMKDLTDSPSEETLESVVELLNTVGEQFETDSFRTGQATLEGSQLLDSLFGILDNIIQTAKISSRIKFKLIDIKELRHDKNWNSDKKDNGPKTIQQIHEEEERQRQLKNNSRSNSRRTNNSSNRHSFRRDAPPASKDSFITTRTYSQRNSQRAPPPKEEPAAPTSTATNMFSALMGESDDEE
notes: eIF4G1, Saccharomyces cerevisiae; source: S. cerevisiae strain carrying the GFP fusion, in cell extract
For B2, in test [1], the “abundance in the eIF4E-Flag 39S complex (Glc+)” value is 88 ± 12 relative to 100 mRNA and the “abundance in the eIF4E-Flag 57S complex (Glc+)” value is 71 ± 8.6 relative to 100 mRNA. For the same molecule, in test [2], the “abundance in the Flag-PAB1 39S complex (Glc+)” value is 13 ± 2.3 relative to 100 mRNA and the “abundance in the Flag-PAB1 57S complex (Glc+)” value was 6.4 ± 0.91 relative to 100 mRNA. In test [3], the “abundance in the Flag-PAB1 39S complex (30 °C to 46 °C 1 min)” value was 7.9 ± 1.7 relative to 100 mRNA, the “abundance in the Flag-PAB1 39S complex (Glu + − 10 min + 1 min)” value (“abundance … (Glu + − 10 min + 1 min)” below) is 8.8 ± 1.6 relative to 100 mRNA, the “abundance in the Flag-PAB1 57S complex (30 °C to 46 °C 1 min)” value is 3 ± 2.2 relative to 100 mRNA and the “abundance in the Flag-PAB1 57S complex (Glu + − 10 min +1 min)” value (from here on “abundance … (Glu + − 10 min +1 min)”) is 5.3 ± 1.1 relative to 100 mRNA.

B3: translation termination factor eRF1 (natural protein, Saccharomyces cerevisiae, UniProt P12385 1-437, looked up)
chain: MDNEVEKNIEIWKVKKLVQSLEKARGNGTSMISLVIPPKGQIPLYQKMLTDEYGTASNIKSRVNRLSVLSAITSTQQKLKLYNTLPKNGLVLYCGDIITEDGKEKKVTFDIEPYKPINTSLYLCDNKFHTEVLSELLQADDKFGFIVMDGQGTLFGSVSGNTRTVLHKFTVDLPKKHGRGGQSALRFARLREEKRHNYVRKVAEVAVQNFITNDKVNVKGLILAGSADFKTDLAKSELFDPRLACKVISIVDVSYGGENGFNQAIELSAEALANVKYVQEKKLLEAYFDEISQDTGKFCYGIDDTLKALDLGAVEKLIVFENLETIRYTFKDAEDNEVIKFAEPEAKDKSFAIDKATGQEMDVVSEEPLIEWLAANYKNFGATLEFITDKSSEGAQFVTGFGGIGAMLRYKVNFEQLVDESEDEYYDEDEGSDYDFI
notes: translation termination factor eRF1, Saccharomyces cerevisiae; source: S. cerevisiae, in cell extract
In the case of B3, in test [4], the “fold change of abundance in the 77S complex, glucose depleted 10 min against glucose” value is 4 fold and the “fold change of association with the 77S complex, 46 °C 1 min against 30 °C” value worked out at 2 fold.

B4: RPL6B-GFP (natural protein, Saccharomyces cerevisiae, UniProt P05739 1-176, looked up)
chain: MTAQQAPKWYPSEDVAAPKKTRKAVRPQKLRASLVPGTVLILLAGRFRGKRVVYLKHLEDNTLLVTGPFKVNGVPLRRVNARYVIATSTKVSVEGVNVEKFNVEYFAKEKLTKKEKKEANLFPEQQTKEIKTERVEDQKVVDKALLAEIKKTPLLKQYLSASFSLKNGDKPHLLKF
notes: large ribosomal subunit protein RPL6B, Saccharomyces cerevisiae; part of the 60S ribosomal subunit in the extract; source: S. cerevisiae strain carrying the GFP fusion, in cell extract
In the case of B4, the “fold change of abundance in the 57S complex, glucose depleted against glucose” value in test [5] came out at 1.8 fold.

B5: eIF4E, GFP tagged (natural protein, Saccharomyces cerevisiae, UniProt P07260 1-213, looked up)
chain: T1 sequence (looked up)
notes: as for B1
Regarding B5, in test [2], the “abundance in the Flag-PAB1 39S complex (Glc+)” value is 28 ± 9.5 relative to 100 mRNA and the “abundance in the Flag-PAB1 57S complex (Glc+)” value is 14 ± 2.9 relative to 100 mRNA. Moreover, in test [3], the “abundance in the Flag-PAB1 39S complex (30 °C to 46 °C 1 min)” value was 20 ± 2.5 relative to 100 mRNA, the “abundance … (Glu + − 10 min + 1 min)” value was 14 ± 3.8 relative to 100 mRNA, the “abundance in the Flag-PAB1 57S complex (30 °C to 46 °C 1 min)” value is 21 ± 9.4 relative to 100 mRNA and the “abundance … (Glu + − 10 min +1 min)” value is 5.1 ± 2.1 relative to 100 mRNA.

B6: eIF4G2-GFP (natural protein, Saccharomyces cerevisiae, UniProt P39936 1-914, looked up)
chain: MTDQRGPPPPHPQQANGYKKFPPHDNQYSGANNSQPNNHYNENLYSAREPHNNKQYQSKNGKYGTNKYNNRNNSQGNAQYYNNRFNNGYRLNNNDYNPAMLPGMQWPANYYAPQMYYIPQQMVPVASPPYTHQPLNTNPEPPSTPKTTKIEITTKTGERLNLKKFHEEKKASKGEEKNDGVEQKSKSGTPFEKEATPVLPANEAVKDTLTETSNEKSTSEAENTKRLFLEQVRLRKAAMERKKNGLISETEKKQETSNHDNTDTTKPNSVIESEPIKEAPKPTGEANEVVIDGKSGASVKTPQHVTGSVTKSVTFNEPENESSSQDVDELVKDDDTTEISDTTGGKTVNKSDDETINSVITTEENTVKETEPSTSDIEMPTVSQLLETLGKAQPISDIYEFAYPENVERPDIKYKKPSVKYTYGPTFLLQFKDKLKFRPDPAWVEAVSSKIVIPPHIARNKPKDSGRFGGDFRSPSMRGMDHTSSSRVSSKRRSKRMGDDRRSNRGYTSRKDREKAAEKAEEQAPKEEIAPLVPSANRWIPKSRVKKTEKKLAPDGKTELFDKEEVERKMKSLLNKLTLEMFDSISSEILDIANQSKWEDDGETLKIVIEQIFHKACDEPHWSSMYAQLCGKVVKDLDPNIKDKENEGKNGPKLVLHYLVARCHEEFEKGWADKLPAGEDGNPLEPEMMSDEYYIAAAAKRRGLGLVRFIGYLYCLNLLTGKMMFECFRRLMKDLNNDPSEETLESVIELLNTVGEQFEHDKFVTPQATLEGSVLLDNLFMLLQHIIDGGTISNRIKFKLIDVKELREIKHWNSAKKDAGPKTIQQIHQEEEQLRQKKNSQRSNSRFNNHNQSNSNRYSSNRRNMQNTQRDSFASTKTGSFRNNQRNARKVEEVSQAPRANMFDALMNNDGDSD
notes: eIF4G2, Saccharomyces cerevisiae; also called TIF4632-GFP; source: S. cerevisiae strain RP2384 (TIF4632-GFP::G418), in cell extract
B6: in test [1], the “abundance in the eIF4E-Flag 39S complex (Glc+)” value is 29 ± 5.4 relative to 100 mRNA and the “abundance in the eIF4E-Flag 57S complex (Glc+)” value is 32 ± 11 relative to 100 mRNA. Further, in test [2], the “abundance in the Flag-PAB1 39S complex (Glc+)” value is 8.3 ± 3.4 relative to 100 mRNA and the “abundance in the Flag-PAB1 57S complex (Glc+)” value was 3.5 ± 1.4 relative to 100 mRNA. In test [3], the “abundance in the Flag-PAB1 39S complex (30 °C to 46 °C 1 min)” value is 12 ± 8.1 relative to 100 mRNA, the “abundance … (Glu + − 10 min + 1 min)” value is 5.3 ± 2.7 relative to 100 mRNA, the “abundance in the Flag-PAB1 57S complex (30 °C to 46 °C 1 min)” value is 3.8 ± 2.3 relative to 100 mRNA and the “abundance … (Glu + − 10 min +1 min)” value was 3.2 ± 0.45 relative to 100 mRNA.
